Data as given in patent publication US20050164945A1, “Endotheliase-1 ligands” (priority 2003, published 2005).

T1: recombinant endotheliase 1 (human), Q9UL52
T1 chain: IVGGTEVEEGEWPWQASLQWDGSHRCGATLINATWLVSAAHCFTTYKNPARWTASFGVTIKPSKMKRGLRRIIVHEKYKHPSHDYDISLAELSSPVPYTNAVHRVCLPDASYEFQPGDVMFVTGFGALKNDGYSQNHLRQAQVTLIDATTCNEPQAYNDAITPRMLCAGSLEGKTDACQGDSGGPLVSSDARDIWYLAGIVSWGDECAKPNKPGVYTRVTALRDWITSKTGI


Experiments:
[1] = biological target: T1, recombinant endotheliase 1 (human), …; assay: inhibition of ET1 activity
[2] = biological target: T1, recombinant endotheliase 1 (human), …; assay: cell-based or functional assay

Ki [1] [nM]	ET1 IC50 [2] [nM]	Binder
100 to 1000	770	AGVQHCESRDLPCLIKGT (modifications not checked) [DX-1051]
	350	AGNYMCKGYWPDCKMTGT (modifications not checked) [DX-1133]
100 to 1000	47	AGWPTCRGFWPDCGMMGT (modifications not checked) [DX-1135]
